Biological target: HER-2 protein (human p185 HER-2 receptor) (human) (UniProt P04626)
Assay: flow cytometry on SKBR3 cells, control sample

Mean Cell Fluorescence: 0.647
Substance: negative control sera (antibody)
